Measurements from patent US20240043508A1.

B1: RD3 (antibody, V domains shown)
VH: EVQLLESGGGLVQPGGSLRLSCAASGFTFSDYAMSWVRQAPGKGLEWVSWIYSGSGNKYYADSVKGRFTISRDNSKNTLYLQMNSLRAEDTAVYYCARFPIARTSNSQSSYDGMDVWGQGTLVTVSS
VL: QSVLTQPPSASGTPGQRVTISCSGSSSNIGSNAVSWYQQLPGTAPKLLIYADNKRPSGVPDRFSGSKSGTSASLAISGLRSEDEADYYCGAWDSSLNAYVFGGGTKLTVL
B2: K202.A (bispecific antibody)
heavy: EVQLLESGGGLVQPGGSLRLSCAASGFTFSDYAMSWVRQAPGKGLEWVSWIYSGSGNKYYADSVKGRFTISRDNSKNTLYLQMNSLRAEDTAVYYCARFPIARTSNSQSSYDGMDVWGQGTLVTVSSASTKGPSVFPLAPCSRSTSESTAALGCLVKDYFPEPVTVSWNSGALTSGVHTFPAVLQSSGLYSLSSVVTVPSSSLGTKTYTCNVDHKPSNTKVDKRVESKYGPPCPPCPPCPAPEFLGGPSVFLFPPKPKDTLMISRTPEVTCVVVDVSQEDPEVQFNWYVDGVEVHNAKTKPREEQFNSTYRVVSVLTVLHQDWLNGKEYKCKVSNKGLPSSIEKGQPREPQVYTLPPSQEEMTKNQVSLTCLVKGFYPSDIAVEWESNGQPENNYKTTPPVLDSDGSFFLYSRLTVDKSRWQEGNVFSCSVMHEALHNHYTQKSLSLSLGK
light: QSVLTQPPSASGTPGQRVTISCSGSSSNIGSNAVSWYQQLPGTAPKLLIYADNKRPSGVPDRFSGSKSGTSASLAISGLRSEDEADYYCGAWDSSLNAYVFGGGTKLTVLVAAPSVFIFPPSDEQLKSGTASVVCLLNNFYPREAKVQWKVDNALQSGNSQESVTEQDSKDSTYSLSSTLTLSKADYEKHKVYACEVTHQGLSSPVTKSFNRGEC
scFv: EVQLLESGGGLVQPGGSLRLSCAASGFTFSSYDMSWVRQAPGKGLEWVSGISYSGGSTYYADSVKGRFTISRDNSKNTLYLQMNSLRAEDTAVYYCARDVNFVPLVTFDYWGQGTLVTVSSGGGGSGGGGSGGGGSQSVLTQPPSASGTPGQRVTLSCTGSSSNIGSNSVTWYQQLPGTAPKLLIYDDNQRPSGVPDRFSGSKSGTSASLAISGLRSEDEADYYCGTWDYSLSAYVFGGGTKLTVL
B3: K202.B (bispecific antibody)
heavy: B2 heavy
light: B2 light
scFv: B2 scFv

Molecular target: SARS-CoV-2 S protein of the B.1 (D614G) variant, on pseudotyped lentiviral particles (SARS-CoV-2)
Experiment: cell-based or functional assay

Binder | IC50 (nM), pseudotyped virus infection [nM] | IC50 (nM), pseudovirus neutralization, luciferase in 293T/hACE2 cells [nM]
B1 | 2.22 | 1.4
B2 | 0.39 | 
B3 | 0.12 | 
